# Measured values taken from the Human Domainome abundance scans (Beltran et al. 2025).
# ± gives the uncertainty stated by the source.
# B1: WW domain-binding protein 4, residues 8 to 43; numbered along this chain, O75554 (parent)
# chain: QPKKFCDYCKCWIADNRPSVEFHERGKNHKENVAKR
# Variants of: B1
# Assay: abundance fitness (aPCA) (normalised: wild type 0, dead -1); higher = more abundant; growth selection in yeast, the domain comes from the species named
# Settings: Homo sapiens
row,Variant,abundance fitness
1,QPKKFCDYCKCWIADNRPRVEFHERGKNHKENVAKR [S19R],-0.574 ± 0.063
2,QPKKFCDYCKCWIADNRPQVEFHERGKNHKENVAKR [S19Q],-0.218 ± 0.094
3,QPKKFCDYCKCWIADNRPEVEFHERGKNHKENVAKR [S19E],-0.245 ± 0.074
4,QPKKFCDYCKCWIADNRPAVEFHERGKNHKENVAKR [S19A],-0.058 ± 0.065
5,QPKKFCDYCKCWIADNRPGVEFHERGKNHKENVAKR [S19G],-0.3 ± 0.065
6,QPKKFCDYCKCWIADNRPCVEFHERGKNHKENVAKR [S19C],-0.516 ± 0.12
7,QPKKFCDYCKCWIADNRPMVEFHERGKNHKENVAKR [S19M],-0.07 ± 0.1
8,QPKKFCDYCKCWIADNRPHVEFHERGKNHKENVAKR [S19H],-0.269 ± 0.29
9,QPKKFCDYCKCWIADNRPKVEFHERGKNHKENVAKR [S19K],-0.379 ± 0.097
10,QPKKFCDYCKCWIADNRPTVEFHERGKNHKENVAKR [S19T],-0.079 ± 0.078
11,QPKKFCDYCKCWIADNRPNVEFHERGKNHKENVAKR [S19N],-0.204 ± 0.11
12,QPKKFCDYCKCWIADNRPDVEFHERGKNHKENVAKR [S19D],-0.13 ± 0.082
13,QPKKFCDYCKCWIADNRPLVEFHERGKNHKENVAKR [S19L],-0.467 ± 0.062
14,QPKKFCDYCKCWIADNRPFVEFHERGKNHKENVAKR [S19F],-0.797 ± 0.27
15,QPKKFCDYCKCWIADNRPVVEFHERGKNHKENVAKR [S19V],-0.451 ± 0.071
16,QPKKFCDYCKCWIADNRPWVEFHERGKNHKENVAKR [S19W],-0.672 ± 0.089
17,QPKKFCDYCKCWIADQRPSVEFHERGKNHKENVAKR [N16Q],-0.073 ± 0.094
18,QPKKFCDYCKCWIADVRPSVEFHERGKNHKENVAKR [N16V],-0.14 ± 0.057
19,QPKKFCDYCKCWIADMRPSVEFHERGKNHKENVAKR [N16M],0.024 ± 0.084
20,QPKKFCDYCKCWIADYRPSVEFHERGKNHKENVAKR [N16Y],-0.06 ± 0.14
21,QPKKFCDYCKCWIADDRPSVEFHERGKNHKENVAKR [N16D],-0.233 ± 0.11
22,QPKKFCDYCKCWIADSRPSVEFHERGKNHKENVAKR [N16S],-0.177 ± 0.082
23,QPKKFCDYCKCWIADHRPSVEFHERGKNHKENVAKR [N16H],-0.105 ± 0.091

row,Variant,abundance fitness
1,QPKKFCDYCKCWIADLRPSVEFHERGKNHKENVAKR [N16L],-0.175 ± 0.065
2,QPKKFCDYCKCWIADGRPSVEFHERGKNHKENVAKR [N16G],0.151 ± 0.055
3,QPKKFCDYCKCWIADKRPSVEFHERGKNHKENVAKR [N16K],0.102 ± 0.12
4,QPKKFCDYCKCWIADTRPSVEFHERGKNHKENVAKR [N16T],0.185 ± 0.067
5,QPKKFCDYCKCWIADPRPSVEFHERGKNHKENVAKR [N16P],0.018 ± 0.078
6,QPKKFCDYCKCWIADIRPSVEFHERGKNHKENVAKR [N16I],0.321 ± 0.19
7,QPKKFCDYCKCWIADERPSVEFHERGKNHKENVAKR [N16E],0.027 ± 0.082
8,QPKKFCDYCKCWIADARPSVEFHERGKNHKENVAKR [N16A],0.135 ± 0.064
9,QPKKFCDYCKCWIADWRPSVEFHERGKNHKENVAKR [N16W],-0.268 ± 0.065
10,QPKKFCDYCKCWIADRRPSVEFHERGKNHKENVAKR [N16R],-0.141 ± 0.061
11,QPKKFCDYCKCWIADFRPSVEFHERGKNHKENVAKR [N16F],-0.143 ± 0.36
12,QPKKFCDYCKCWIADNRYSVEFHERGKNHKENVAKR [P18Y],-0.194 ± 0.096
13,QPKKFCDYCKCWIADNRVSVEFHERGKNHKENVAKR [P18V],-0.198 ± 0.069
14,QPKKFCDYCKCWIADNRESVEFHERGKNHKENVAKR [P18E],-0.048 ± 0.073
15,QPKKFCDYCKCWIADNRMSVEFHERGKNHKENVAKR [P18M],-0.002 ± 0.073
16,QPKKFCDYCKCWIADNRHSVEFHERGKNHKENVAKR [P18H],-0.124 ± 0.14
17,QPKKFCDYCKCWIADNRASVEFHERGKNHKENVAKR [P18A],-0.108 ± 0.061
18,QPKKFCDYCKCWIADNRCSVEFHERGKNHKENVAKR [P18C],-0.113 ± 0.086
19,QPKKFCDYCKCWIADNRKSVEFHERGKNHKENVAKR [P18K],-0.175 ± 0.13
20,QPKKFCDYCKCWIADNRWSVEFHERGKNHKENVAKR [P18W],-0.522 ± 0.092
21,QPKKFCDYCKCWIADNRDSVEFHERGKNHKENVAKR [P18D],-0.388 ± 0.27
22,QPKKFCDYCKCWIADNRTSVEFHERGKNHKENVAKR [P18T],-0.381 ± 0.14
23,QPKKFCDYCKCWIADNRGSVEFHERGKNHKENVAKR [P18G],-0.179 ± 0.066

row,Variant,abundance fitness
1,QPKKFCDYCKCWIADNRLSVEFHERGKNHKENVAKR [P18L],-0.236 ± 0.071
2,QPKKFCDYCKCWIADNRSSVEFHERGKNHKENVAKR [P18S],-0.192 ± 0.086
3,QPKKFCDYCKCWIADNRQSVEFHERGKNHKENVAKR [P18Q],-0.12 ± 0.083
4,QPKKFCDYCKCWIADNRNSVEFHERGKNHKENVAKR [P18N],-0.177 ± 0.1
5,QPKKFCDYCKCWIADNRISVEFHERGKNHKENVAKR [P18I],-0.349 ± 0.12
6,QPKKFCDYCKCWIADNRRSVEFHERGKNHKENVAKR [P18R],-0.162 ± 0.059
7,QPKKFCDYCKCWIADNRFSVEFHERGKNHKENVAKR [P18F],-0.431 ± 0.46
8,QPKKFCDYCKTWIADNRPSVEFHERGKNHKENVAKR [C11T],0.087 ± 0.17
9,QPKKFCDYCKWWIADNRPSVEFHERGKNHKENVAKR [C11W],-0.589 ± 0.12
10,QPKKFCDYCKVWIADNRPSVEFHERGKNHKENVAKR [C11V],0.066 ± 0.068
11,QPKKFCDYCKCWIEDNRPSVEFHERGKNHKENVAKR [A14E],-0.048 ± 0.098
12,QPKKFCDYCKCWIVDNRPSVEFHERGKNHKENVAKR [A14V],-0.39 ± 0.077
13,QPKKFCDYCKCWIWDNRPSVEFHERGKNHKENVAKR [A14W],-0.338 ± 0.076
14,QPKKFCDYCKCWIQDNRPSVEFHERGKNHKENVAKR [A14Q],-0.264 ± 0.28
15,QPKKFCDYCKCWILDNRPSVEFHERGKNHKENVAKR [A14L],-0.558 ± 0.074
16,QPKKFCDYCKCWICDNRPSVEFHERGKNHKENVAKR [A14C],-0.169 ± 0.1
17,QPKKFCDYCKCWIMDNRPSVEFHERGKNHKENVAKR [A14M],-0.602 ± 0.14
18,QPKKFCDYCKCWIKDNRPSVEFHERGKNHKENVAKR [A14K],-0.251 ± 0.091
19,QPKKFCDYCKCWIRDNRPSVEFHERGKNHKENVAKR [A14R],-0.381 ± 0.07
20,QPKKFCDYCKCWIPDNRPSVEFHERGKNHKENVAKR [A14P],-0.19 ± 0.082
21,QPKKFCDYCKCWIGDNRPSVEFHERGKNHKENVAKR [A14G],-0.286 ± 0.061
22,QPKKFCDYCKCWISDNRPSVEFHERGKNHKENVAKR [A14S],-0.343 ± 0.082
23,QPKKFCDYCKCWIDDNRPSVEFHERGKNHKENVAKR [A14D],-0.2 ± 0.1
